Laboratory results as given in patent US20040053231A1 (published 2004).

Tests used:
[1] = molecular target: T1, GST-p300CH1 (p300 residues 300-528) (UniProt Q09472 300-528); assay: GST pull-down of 35S-labelled in vitro translated protein on GST-p300CH1
T1 construct: range 300-528; Bacterially expressed, immobilised on glutathione beads; the construct is described in Bhattacharya et al., 1999; also called GST-CH1; GST tagged p300 (CH1 domain); not shown: glutathione S-transferase tag from pGEX4T1 (Pharmacia)
T1 sequence (Q09472 300-528): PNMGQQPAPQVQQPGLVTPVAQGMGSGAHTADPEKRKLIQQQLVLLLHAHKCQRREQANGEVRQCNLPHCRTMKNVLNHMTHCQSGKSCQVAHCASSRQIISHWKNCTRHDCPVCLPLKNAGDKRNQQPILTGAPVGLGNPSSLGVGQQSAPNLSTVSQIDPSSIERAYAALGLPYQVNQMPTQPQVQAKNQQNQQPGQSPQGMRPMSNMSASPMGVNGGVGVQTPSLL

[2] = molecular target: T2, GAL4-CH1 (residues 300-528 of p300 fused to the DNA-binding domain of GAL4) (UniProt P04386 1-147; Q09472 300-528); assay: mammalian two-hybrid, GAL4-luciferase reporter, Hep3B cells
T2 construct: also called GAL4-p300CH1

Binder	binding result [1]	binding result [2]
HCITEDX mutant lacking the carboxy-terminal residues 138 to 184 (other, 35S-labelled (in vitro translated) in the GST pull-down assay, also called HCITEDXΔ; carboxy-terminal mutant) MADHLMLAEGYRLVQRPPSAAAAHGPHALRTLPPYAGPGLDSGLRPRGAPLGPPPPRQPGALAYGAFGPPSSFQPFPAVPPPAAGIAHLQPVATPYPGRAAAPPNAPGGPPGPQPAPSAAAPPPPAHALGGMDAELI	no binding	–
VP16-HCITEDX? (VP16 activation domain fused to residues 1-137 of HCITEDX) (other, also called VP16-HCITEDXΔ) MADHLMLAEGYRLVQRPPSAAAAHGPHALRTLPPYAGPGLDSGLRPRGAPLGPPPPRQPGALAYGAFGPPSSFQPFPAVPPPAAGIAHLQPVATPYPGRAAAPPNAPGGPPGPQPAPSAAAPPPPAHALGGMDAELI	–	no binding
